Laboratory results reported in publication PMC7293203.

Target: the activated zmTrpA variants (Zea mays)
Experiment: activity titration

Chain of tryptophan synthase β-subunit TrpB1 from Zea mays (P43283 whole entry): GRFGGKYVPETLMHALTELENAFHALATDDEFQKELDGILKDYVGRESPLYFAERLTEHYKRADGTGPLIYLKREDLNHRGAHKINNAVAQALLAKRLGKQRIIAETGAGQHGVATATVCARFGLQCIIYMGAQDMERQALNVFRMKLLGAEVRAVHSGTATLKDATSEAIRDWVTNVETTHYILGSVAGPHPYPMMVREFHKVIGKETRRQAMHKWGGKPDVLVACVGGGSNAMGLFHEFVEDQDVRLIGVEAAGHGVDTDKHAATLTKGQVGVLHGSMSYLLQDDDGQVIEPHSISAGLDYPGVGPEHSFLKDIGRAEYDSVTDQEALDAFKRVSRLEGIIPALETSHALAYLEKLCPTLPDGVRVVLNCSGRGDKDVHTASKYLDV

Kd: 300 to 700 nM
Substance: tryptophan synthase β-subunit TrpB1 from Zea mays (from UniProt P43283 1-389) (enzyme)
